From paper PMC5152705

What was measured:
[1] = biological target: recombinant fragment of human SP-A (rfhSP-A) (human); experiment: SEC; gel permeation chromatography, Superdex 200 HR 10/30, TBS with 5 mM EDTA, pH 7.4; rfhSP-A purified by mannan affinity chromatography; also after freeze/thawing
[2] = biological target: recombinant fragment of human SP-A (rfhSP-A) (human); experiment: SEC; gel permeation chromatography, Superdex 200 HR 10/30, TBS with 5 mM EDTA, pH 7.4; rfhSP-A after IMAC and removal of the NT tag; quaternary structure estimated by comparison with molecular weight standards

stoichiometry N [1]: 3
percent dimeric [2]: 15%
percent monomeric [2]: 9%
percent trimeric [2]: 72%
stoichiometry N [2]: 3
Substance: recombinant fragment of human SP-A (rfhSP-A) (domain or fragment)
